The record followed here is the nanobody polyreactivity screen of Harvey et al. (2022).

The data set is described as follows: yeast display, Sf9 membrane polyspecificity reagent, FACS + sequencing; frameworks hold sequencing errors. In short, it runs like this:
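A synthetic nanobody library was expressed on Saccharomyces cerevisiae BJ5465 by galactose induction for 36–48 hours. The library was stained for 1 hour at 4 °C with 10% biotinylated, detergent-solubilized Sf9 membrane reagent and enriched with streptavidin microbeads before FACS. Low and high (top ~1%) gates were set on anti-HA fluorescence for expression and streptavidin fluorescence for reagent binding, and each polyreactivity label reflects the gate of origin.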
Regarding “QVQLVESGGGLVQAGGSLRLSCAASGRIFYTNAMGCYRQAPGKERELVAAIRSGGITTYADSVKGRFTISRDNAKNTVYLQMNSLKPEDTAVYYCATRILSIYSIFGAYDYWGQGTQVTVSS”, the “polyreactivity (PSR sort gate)” value is recorded as “low polyreactivity”.

Turning to “QVQLVESGGGLVQAGGSLRLSCAASGRIFYTNAMGWSRQAPGKERELVAVISWGGDTTYYADSVKGRFTISRDNAKNTVYLQLNSLKPEDTAVYYCNADWGPTYEIYDSWGQGTQVTVSS”, the “polyreactivity (PSR sort gate)” value was “low polyreactivity”.

For “QVQLVESGGGLVQAGGSLRLSCAASGRIFYTYAMGWYRQAPGKASELVAAITYRGGSTYYADSVKGRFTISRDIAKNTVYLQMNSLKPADTAVYYCAARPGRGPDSRWRYKYDYWGQGTQVTVSS”, the “polyreactivity (PSR sort gate)” value is “high polyreactivity”. Turning to “QVQLVESGGGLVQAGGSLRLSCAASGRIFYVNAMGWYRQAPGKERELVAAISGSGGRTYYADSVKGRFTISRDNAKNTVYLQMNSLKPEDTAVYYWNTQFRYPQKYDYWGQGTQVTVSS”, the “polyreactivity (PSR sort gate)” value is “high polyreactivity”. Take “QVQLVESGGGLVQAGGSLRLSCAASGRIFYVNTMGWYRQAPGKERELVATISSAASTNYADSVKGRFTISRDNAKNTVYLQMNSLKPEDTAVYYCNAAFYKEYFYWGQGTQVTVSS”: the “polyreactivity (PSR sort gate)” value is on record as “low polyreactivity”. Turning to “QVQLVESGGGLVQAGGSLRLSCAASGRIFYVYAMGWYRQAPGKERELVAAISSDDGSTYYADSVKGRFTISRDNAKNTVYLQMNSLKPEVTAVYYCAKANKRGRYNYWGQGTQVTVSS”, the “polyreactivity (PSR sort gate)” value is “high polyreactivity”. In the case of “QVQLVESGGGLVQAGGSLRLSCAASGRIFYVYGLGWYRQEPGKERELVAAISKRGDNTYYADSVKGRFTISRDNSKNTVYLQMNSLKPEDTAVYYCKVKRYGGRSDYWGQGTQVTVSS”, the “polyreactivity (PSR sort gate)” value is reported as “high polyreactivity”. The entry for “QVQLVESGGGLVQAGGSLRLSCAASGRIFYVYSMGWYRQAPGKDRELVADISRGGSTNYADSVKGRFTISRDNAKNTVYLQMNSLKPEDTAVYYCNTDGLWSAEYDYWGQGTQVTVSS” is “low polyreactivity”; for “QVQLVESGGGLVQAGGSLRLSCAASGRIFYVYTMGWYRQAPGKERELVAAITWRGGSTYYADSVKGRFTISRDNAKNTVYLQMNSLKPEDTAVYYCATAQWVGYWDDYWGQGTQVTVSS” it is “high polyreactivity”. The entry for “QVQLVESGGGLVQAGGSLRLSCAASGRIFYWYDMGWYRQAPGKERELVAAISTRGGSTYYADSVKGRFTISRDNAKNTVYLQMNSLKPEDTAVYYCAARANPYVLKYYYWGQGTQVTVSS” is “high polyreactivity”; for “QVQLVESGGGLVQAGGSLRLSCAASGRIFYYNAMGWYRPAPGKERELVAAIDWSGGSTYYADSVKGRFTISRDNAKNTVYLQMNSLKPEDTAVYYCNAPFRYVPPEGSGPYDYWGQGTQVTVSS” it is “low polyreactivity”. In the case of “QVQLVESGGGLVQAGGSLRLSCAASGRIFYYNAMGWYRPAPGKERELVATITGSGGSTYYADSVKGRFTISRDNAKNTVYLQMNSLKPEDTAVYYCNATRWYYDFYKLDYWGQGTQVTVSS”, the “polyreactivity (PSR sort gate)” value is “low polyreactivity”. As for “QVQLVESGGGLVQAGGSLRLSCAASGRIFYYNAMGWYRQAPGKERELVAGITWRGGSTYYADSVKGRFTISRDNAKNTVYVQMNSLKPEDTAVYYCAKVGWTPYGVSPYDYWGQGTQVTVSS”, the “polyreactivity (PSR sort gate)” value is reported as “high polyreactivity”.

Take “QVQLVESGGGLVQAGGSLRLSCAASGRIFYYNAMGWYRQAPGKEWELVAAISSSGTTYYADSVKGRFTISRDNAKNTVYLQMNSLKPEDTAVYYCAAGSYWSPYGQSFWPKYDYWGQGTQVTVSS”: the “polyreactivity (PSR sort gate)” value is “high polyreactivity”. On to “QVQLVESGGGLVQAGGSLRLSCAASGRIFYYNGMGWSRQAPGKERELVAAITANGGSTYYADSVKGRFTISRDNAKNTVYLQMNSLKPDDTAVYYCAARYRFGGIRRYNYWGQGTQVTVSS”, for which the “polyreactivity (PSR sort gate)” value is given as “high polyreactivity”. Take “QVQLVESGGGLVQAGGSLRLSCAASGRIFYYNGMGWYRQAPGKERELVAAIRWSGGSTRYADSVKGRFTISRDNAKNTVYLQMNSLKPEDTAVYYCAADGFYRWYPYKRYQFYYWGQGTQVTVSS”: the “polyreactivity (PSR sort gate)” value was “high polyreactivity”.
